Residue numbers refer to the chain shown, from its start.
B1: E5C1 BiKE (BiKE: HER2/CD16a) (bispecific antibody)
chain: QVQLQESGGGLVQAGGSLRLDCAASGRTLSSYVVGWFRQAPGKEREVVAAIGWSRTSTFYTDSVKGRFTISRDNTENTVYLQMNSLKPGDTAVYYCAADSSPRRWDRESDFGSWGQGTQVTVSSPSGQAGAAASESLFVSNHASQVQLQESGGGLVQAGGSLRLSCAASGRTFRLYRMGWFRQAPGKEREFVGSIKMIDGSTLYGDPVKGRFTISRDNTKFMAYLQMNSLKPEDTAVYYCASVSRVTGSYDSWGQGTQVTVSSWELQGSEQKLISEEDLHHHHHHHHHHHH
notes: Monomer by LC-MS; also called BIKE: CD16a/HER2
B2: A3 (VHH)
VHH: QVQLQESGGGLVQAGGSLRISCAASGRTSDLFPVGWFRQAPGKEREIVAAIRWSGGVIGYGDPVKGRFTISTDNAKNTVYLQMNSLKPEDTAVYYCAAGPRESTVTWNYWGQGTHVTVSS
notes: not the anti-CD16a clone A3; also called A3 anti-HER2 VHH
B3: F4 anti-HER2 VHH (VHH)
VHH: QVQLQESGGGLVQAGGSLKLSCAASGRTLSAYVVGWFRQAPGKERESVAAIGWSSRSPYYPDSVKGRFTISEDNTKNTVYLQMNSLKPDDTAVYYCAADSYPRRWDRESDFGSWGQGTQVTVSS
B4: F2 anti-HER2 VHH (VHH)
VHH: B3 VHH with K43R, S55T, R56H, P58V, P61A, E72R, K76E, Y101S
B5: D6 anti-HER2 VHH (VHH)
VHH: B3 VHH with K19T, L29F, A31T, S54A, R56N, P61A, E72R, N84K
B6: E9 anti-HER2 VHH (VHH)
VHH: B3 VHH with L11S, K43R, S55T, R56H, P58V, P61A, E72R, K76E, Y101S
B7: H7 anti-HER2 VHH (VHH)
VHH: B3 VHH with K19R, R27H, A31T, G35A, S55T, P61A
B8: C9 (VHH)
VHH: QVQLQESGGGLVQAGGSLRLSCAASGRTVSRYSMGWFRQAPGKEREFVAAIAWFGGWPYYADSVKGRFTISRDNAKNTVYLQMNSLKPEDTAVYYCAARQWARTWDYWGQGTQVTVSS
notes: also called C9 anti-HER2 VHH

Experiments:
[1] = target: T1, HER2 on the surface of HER2+ cancer cells (BT474, SKOV-3) (human, UniProt P04626 23-1255); assay: flow cytometry, SKOV-3 (HER2+) cells, tenfold dilutions 0.001-1000 nM
T1 construct: whole, on cells; also called human epidermal growth factor receptor 2

[2] = target: T2, Biotinylated Human Fc gamma RIIIA/CD16a (F176) Protein, Avitag, His Tag (Acrobiosystems CDA-H82E8) (human, UniProt P08637 17-208, biotinylated (Avitag)); assay: BLI (Octet), biotinylated CD16a on streptavidin sensor, BiKE 1.875-60 nM
T2 construct: also called biotinylated CD16a; CD16a antigen
Experimental: (§1) An Octet® Streptavidin (SA) Biosensor was soaked for at least 10 min in DPBS supplemented with 0.1% Casein, biotinylated CD16a, CD16b-NA1, CD16b-NA2, and HER2 antigens were loaded onto the streptavidin (SA) biosensor until 1 nm shift was reached. Next, the sensor was dipped into the washing buffer (DPBS+0.05% Tween 20+0.1% Casein) for 2 min to reach the baseline. […] Then, in the dissociation step, sensors were dipped into the washing buffer for 5 min to acquire data (Table 5). The data were then analyzed using Octet Data Analysis HT 11.1 software. The sensorgrams were subtracted from the reference and fitted into 1:1 binding model for data analysis. Finally, the affinity and kinetics were analyzed using “Association and Dissociation”.

[3] = target: T3, Biotinylated Human Fc gamma RIIIB/CD16b (NA1) Protein, His, Avitag (Acrobiosystems CDB-H82E4) (human, UniProt O75015 17-200, biotinylated (Avitag)); assay: BLI (Octet), biotinylated CD16b-NA1 on streptavidin sensor, BiKE 1.875-60 nM
T3 construct: NA1 allele; also called CD16b-NAI
Experimental: as §1

[4] = target: T4, Biotinylated Human Fc gamma RIIIB/CD16b (NA2) Protein, His, Avitag (Acrobiosystems CDB-H82Ea) (human, UniProt O75015 17-200, biotinylated (Avitag)); assay: BLI (Octet), biotinylated CD16b-NA2 on streptavidin sensor, BiKE 1.875-60 nM
T4 construct: NA2 allele; also called CD16-NA2
Experimental: as §1

[5] = target: T5, CD16a on NK92 (CD16+) cells (human, UniProt P08637 17-254); assay: flow cytometry, fixed haNK92 (CD16+) cells, tenfold dilutions, anti-histag-FITC
T5 construct: whole, on cells; also called NK92 cells (CD16a+); haNK92 cells (CD16a+)
Experimental: First, CD16a+NK92 was harvested and washed once using Dulbecco's phosphate-buffered saline (DPBS) supplemented with 2% FBS (2% DPBS-FBS). Next, all the cells were fixed using 3.7% paraformaldehyde for 20 min at RT, followed by washing twice. […] Following washing three times, the secondary antibody, anti-Histag antibody FITC labeled, was added. After washing, the samples were run on Cytoflex using FL1 channel.

[6] = target: T2, Biotinylated Human Fc gamma RIIIA/CD16a …; assay: ELISA, biotinylated CD16a on streptavidin plate, tenfold dilutions 0-1000 nM, anti-cMyc-HRP
Experimental: For ELISA, 50 μL of biotinylated CD16a was added to the streptavidin-coated plate and incubated for 45 min at RT. […] Next, 100 μl anti-cMyc tag HRP conjugated secondary antibody (1:10,000 dilutions) was added. Finally, after washing, the substrate was added for color development, and the plate was read using OD of 450 nm.

[7] = target: T6, Biotinylated Human Her2/ErbB2 Protein, His, Avitag (AcroBiosystem HE2-H82E2) (human, UniProt P04626 23-652, biotinylated (Avitag)); assay: ELISA on HER2, tenfold dilutions 0-1000 nM; the HER2 form is not stated for this ELISA, Table 17 lists only the biotinylated HER2
T6 construct: Bought protein; Loaded on streptavidin sensors for BLI; also called biotinylated HER2; HER2 antigen

[8] = target: T7, HER2 protein (coated on ELISA plate) (human, UniProt P04626 23-652, limits assumed); assay: ELISA, periplasmic extract on coated antigen, anti-HA-HRP
T7 construct: also called HER2 antigen
Source text: (§2) FIGS. 4A-4B. FIG. 4A) PBMCs were isolated using Ficoll-Paque method. Then, the RNAs were extracted, cDNA library was generated, genes amplified, and then cloned into pMECS-GG phagemids. The phagemids were used in phage display and the screened candidates were used to infect TG1 bacteria. Colonies were selected, grown, lysed, and the lysates removed. FIG. 4B) The lysates were then used in ELISA to screen for VHHs with the highest affinity to HER2 and with negligible binding to HER1, HER3, and HER4. Bovine serum albumin (BSA) and skim milk were used as controls.
(§3) The next day, each well was washed three times with washing buffer (DPBS+0.1% Tween 20) and then incubated with blocking buffer (2% skimmed milk) for 2 h at RT to block the free binding sites. Next, blocking buffer was replaced with 100 μL of periplasmic extract from above and incubated for 1 h at RT while shaking at 700 rpm. Each well was washed six times with washing buffer (DPBS+0.1% Tween 20) followed by addition of 100 μL HRP Anti-HA tag antibody (1:10000 dilution) and incubation for 1 h at RT while shaking at 700 rpm. Each well was washed again six times, followed by addition of 50 μL 1-Step™ Turbo TMB-ELISA substrate solution at incubation at RT for 15 min (without shaking and at dark). The reaction was stopped by adding 50 μL of stop solution ([…] sulfuric acid) and the plate was read at 450 nm using 630 nm as a reference (450/630 nm).

[9] = target: T8, HER1 (human, UniProt P00533 25-645); assay: as above
T8 construct: The text says only 'HER1'; also called Recombinant human EGFR protein (Fc Chimera), Abcam ab155726; Fc part of the bought chimera not given
Source text: as §2, §3

[10] = target: T9, HER3 (human, UniProt P21860 20-643, limits assumed); assay: as above
T9 construct: also called Recombinant Human ErbB 3 protein, Abcam ab196072
Source text: as §2, §3

[11] = target: T10, Bovine serum albumin (bovine, UniProt P02769 25-607); assay: as above
T10 construct: Control antigen; also called BSA
Source text: as §2, §3

[12] = target: T1, HER2 on the surface of HER2+ cancer …; assay: flow cytometry on BT-474 cells (HER2+), 100 nM binding sites
Experimental: (§4) OVASC-1 is an ascites-derived epithelial ovarian cancer cells obtained from a patient with advanced metastatic disease (11, 12). The expressed VHHs were then incubated with HER2⁺ (BT474, JIMT-1, and SKOV-3) and HER2⁻ (MDA-MB-231) cancer cell lines. Approximately 10⁶ cells were counted and washed using DPBS-1% FBS. […] After washing, FITC-conjugated anti-Human IgG or anti-Histag antibody were added and incubated on ice for 60 min. Cells were washed three times and then analyzed using Beckman-Coulter Gallios flow cytometer at Rutgers Flow cytometry core facility.
(§5) In the next step, the ability of the VHHs to recognize and bind to HER2 on the surface of HER2+ cancer cells was evaluated. […] MDA-MB-231 and OVASC-1 (HER2⁻) cancer cells were used as negative controls.

[13] = target: T1, HER2 on the surface of HER2+ cancer …; assay: flow cytometry on SKOV-3 cells (HER2+), 100 nM binding sites
Experimental: as §4, §5

T3 sequence (O75015 other isoform, or with tags, fused parts or gaps limits assumed): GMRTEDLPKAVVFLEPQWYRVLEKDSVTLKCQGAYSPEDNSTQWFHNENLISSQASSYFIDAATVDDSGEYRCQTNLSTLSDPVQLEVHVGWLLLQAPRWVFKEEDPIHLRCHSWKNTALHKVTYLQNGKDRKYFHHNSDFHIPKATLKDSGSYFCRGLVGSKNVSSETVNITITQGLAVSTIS
T2 sequence (P08637 17-208 limits assumed): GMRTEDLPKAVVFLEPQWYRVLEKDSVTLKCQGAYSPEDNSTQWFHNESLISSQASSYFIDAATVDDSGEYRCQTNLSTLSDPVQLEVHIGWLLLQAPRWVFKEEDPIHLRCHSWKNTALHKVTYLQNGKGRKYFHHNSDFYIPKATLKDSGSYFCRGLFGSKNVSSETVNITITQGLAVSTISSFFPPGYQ
T4 sequence (O75015 17-200 N65S limits assumed): as the sequence (O75015 other isoform, or with tags, fused parts or gaps limits assumed) above, with R20S, N49S, D66N, V90I counted along it
T10 sequence (P02769 25-607 limits assumed): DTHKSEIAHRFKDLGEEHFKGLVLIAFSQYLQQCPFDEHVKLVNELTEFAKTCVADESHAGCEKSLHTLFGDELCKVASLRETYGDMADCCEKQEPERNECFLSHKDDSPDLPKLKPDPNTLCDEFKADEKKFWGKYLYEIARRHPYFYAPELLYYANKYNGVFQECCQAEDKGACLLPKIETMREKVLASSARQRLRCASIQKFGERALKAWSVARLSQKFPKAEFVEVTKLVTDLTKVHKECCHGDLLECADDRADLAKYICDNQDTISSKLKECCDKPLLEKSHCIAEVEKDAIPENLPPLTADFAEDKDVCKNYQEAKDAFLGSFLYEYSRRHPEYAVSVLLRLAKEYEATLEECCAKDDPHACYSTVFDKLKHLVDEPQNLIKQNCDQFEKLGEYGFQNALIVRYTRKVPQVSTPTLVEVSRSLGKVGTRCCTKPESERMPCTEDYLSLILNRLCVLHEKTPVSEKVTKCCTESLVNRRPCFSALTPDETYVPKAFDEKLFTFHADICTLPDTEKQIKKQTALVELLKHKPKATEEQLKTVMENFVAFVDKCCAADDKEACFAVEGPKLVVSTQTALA
T5 sequence (P08637 17-254 F176V): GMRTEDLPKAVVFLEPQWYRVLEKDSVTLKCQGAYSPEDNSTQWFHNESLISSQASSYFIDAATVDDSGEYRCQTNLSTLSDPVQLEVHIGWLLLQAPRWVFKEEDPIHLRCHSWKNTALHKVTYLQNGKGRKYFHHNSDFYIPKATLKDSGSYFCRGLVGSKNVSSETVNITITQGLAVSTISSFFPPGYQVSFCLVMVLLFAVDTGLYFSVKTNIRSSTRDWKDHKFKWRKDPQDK

Row | Binder | binding result [9] | binding result [10] | binding result [11] | FITC+ (%) [12] | FITC- (%) [12] | Mean (MFI) [12] | FITC+ (%) [13] | FITC- (%) [13] | Mean (MFI) [13] | also measured
1 | B1 | – | – | – | – | – | – | – | – | – | EC50 (read off the curve) [1]: ~1 nM; Kd [2]: 2.7 nM; koff [2]: 0.00051 s⁻¹; kon [2]: 189000 M⁻¹ s⁻¹; Kd [3]: 1730 nM; koff [3]: 0.0743 s⁻¹; kon [3]: 42900 M⁻¹ s⁻¹; Kd [4]: 6.71 nM; koff [4]: 0.000946 s⁻¹; kon [4]: 140000 M⁻¹ s⁻¹; EC50 (read off the curve) [5]: ~1 nM; EC50 (read off the curve) [6]: ~0.3 nM; EC50 (read off the curve) [7]: ~0.4 nM
2 | B2 | no binding (tested: extract, conc. not given) | no binding (tested: extract, conc. not given) | no binding (tested: extract, conc. not given) | – | – | – | – | – | – | binding result [8]: binds
3 | B3 | no binding (tested: extract, conc. not given) | no binding (tested: extract, conc. not given) | no binding (tested: extract, conc. not given) | 98.5% | 1.45% | 99500 | 93.3% | 6.51% | 86400 | –
4 | B4 | no binding (tested: extract, conc. not given) | no binding (tested: extract, conc. not given) | no binding (tested: extract, conc. not given) | 98.6% | 1.42% | 99500 | 93.1% | 6.68% | 100000 | –
5 | B5 | no binding (tested: extract, conc. not given) | no binding (tested: extract, conc. not given) | no binding (tested: extract, conc. not given) | 98.1% | 1.86% | 96100 | 94.6% | 5.24% | 89400 | –
6 | B6 | no binding (tested: extract, conc. not given) | no binding (tested: extract, conc. not given) | no binding (tested: extract, conc. not given) | 98.2% | 1.85% | 97900 | 93.1% | 6.76% | 88100 | –
7 | B7 | no binding (tested: extract, conc. not given) | no binding (tested: extract, conc. not given) | no binding (tested: extract, conc. not given) | 98.3% | 1.72% | 100000 | 94.8% | 5.02% | 99900 | –
8 | B8 | no binding (tested: extract, conc. not given) | no binding (tested: extract, conc. not given) | no binding (tested: extract, conc. not given) | – | – | – | – | – | – | binding result [8]: binds
